The values that follow come from the supplement of paper PMC12042874.

± gives the uncertainty stated by the source.

The data set is described as follows: amyloid nucleation score (Sup35N fusion, yeast selection) (log enrichment); library NNK3; higher = more nucleation; inactive = no reads after selection. The gist of the method: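 In psi-negative yeast, Sup35N fusions carrying peptides of 20 random codons were induced with 100 μM copper sulfate for 24 hours. The cells then grew 7 days at 30°C on medium lacking adenine and uracil, and plasmid inserts from input and output were Illumina-sequenced, excluding sequences with under 100 input reads. Nucleation score is the DiMSum log enrichment of output over input reads, centred on the mode score of non-aggregating sequences.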
For GPAVWPKWVSLAKWYPSEI, the amyloid nucleation score entry is “inactive”.

FNANI returned an amyloid nucleation score of 0.12 ± 0.34.

As to MISYELVNALEIISNLIFMW, the amyloid nucleation score entry was “inactive”.

Turning to YVGYRFSHFSSGKRSCSYL, the amyloid nucleation score entry is “inactive”.

In turn, SFLSNCSFPDRSMKAYFIYY gave an amyloid nucleation score of 0.939 ± 0.11.

Take WCGRETSRQWA: the amyloid nucleation score is 0.033 ± 0.39.

As to FMISDNMAQCMERGYRAEVF, the amyloid nucleation score entry was “inactive”.

For ITYSMLVVVQNLA, the amyloid nucleation score turned out to be 1.75 ± 0.1.

Regarding PGDNIYILMGVYKGILWWAE, the amyloid nucleation score entry was “inactive”.

Consider CYDDRHENHHYGE, for which the amyloid nucleation score result is “inactive”.

In the case of ANHLPWEAVWTPRWGYGCSP, the amyloid nucleation score entry was “inactive”.

SSNILFVIFIAY: the amyloid nucleation score turned out to be 1.08 ± 0.21.

Take LDSADTNDHPFSWYNGMLGT: the amyloid nucleation score entry is “inactive”.

In the case of IEVYYSNRSWCLRQIRGCTG, the amyloid nucleation score entry is “inactive”.

Regarding SMDWHAYLDRILLYVRSHS, the amyloid nucleation score entry was “inactive”.

Consider MKCLEGMHFIIFLVLALCIY, for which the amyloid nucleation score result was “inactive”.

As for TICGYI, the amyloid nucleation score result is “inactive”.

Take TDCELGLLRL: the amyloid nucleation score entry is “inactive”.

LDILVRETDQSLWDFQLSSV came in with an amyloid nucleation score of 0.499 ± 0.13.

Turning to ICGRTYVRVT, the amyloid nucleation score is -0.775 ± 1.1.

Turning to LCCTRTSHIMSRVARMAFRV, the amyloid nucleation score entry is “inactive”.

As to LFFLTCRCVRNAYHRYMVCI, the amyloid nucleation score result is “inactive”.

Take SQWIGFIEGCGNWMGYLACV: the amyloid nucleation score entry is “inactive”.

As for NLLWIISHNMNGVSRIISSV, the amyloid nucleation score entry is “inactive”.

For QSSIHTFCLTLLLSKTYSYQ, the amyloid nucleation score entry is “inactive”.

Take QSLLSVGEWNAQHMSLSSGR: the amyloid nucleation score entry is “inactive”.

Turning to VLLVCFLRTRKCSRLLAC, the amyloid nucleation score result was “inactive”.

On to PYSNTKGANELQSYRRYVVS, for which the amyloid nucleation score entry was “inactive”.

NVYFGRYFI: the amyloid nucleation score result was “inactive”.

WQYLNFS showed an amyloid nucleation score of 0.75 ± 0.29.

Consider TSVDGLCSFMDLRL, for which the amyloid nucleation score result was “inactive”.

With FKCAADCVFLALYYMDGWKS, the amyloid nucleation score entry was “inactive”.

As to GIFTLFYYVMMKLIFDFFTV, the amyloid nucleation score entry is “inactive”.

For the substance RIRGTCMGL, the amyloid nucleation score result is “inactive”.

As to INQRLYEPFGRWVWTRYIAR, the amyloid nucleation score result is “inactive”.

As to SILYMVIASWYLY, the amyloid nucleation score result is “inactive”.

As for MFFWMCE, the amyloid nucleation score entry is “inactive”.

Regarding RVGCVQYQFRRCRGWKSNKA, the amyloid nucleation score entry is “inactive”.

For LVVWRIRWRDKGSL, the amyloid nucleation score entry was “inactive”.

With LFLAKRSLSDTLFQPDPFSR, the amyloid nucleation score entry is “inactive”.

On to WFYYVM, for which the amyloid nucleation score result was “inactive”.

For the substance GLVWCFCLCSITSYIMVILF, the amyloid nucleation score entry was “inactive”.

As to IGEILIVFALTRNTVVGYGF, the amyloid nucleation score entry was “inactive”.

WNIFSYNNSLVWNPEGNESG yielded an amyloid nucleation score of 0.836 ± 0.27.

On to KSLTAYSLFVASYLSSFEWG, for which the amyloid nucleation score entry is “inactive”.

In the case of RLYVSKEFRSA, the amyloid nucleation score entry was “inactive”.

For the substance GTLTVYNRDFRDIGDFKIYA, the amyloid nucleation score result is “inactive”.

With VFYSKKDRMGGQFS, the amyloid nucleation score result is “inactive”.

On to SVYVNAYEHNKGGFTRNIHI, for which the amyloid nucleation score entry was “inactive”.

As to SQVGMSPYRSCSINKWCPGI, the amyloid nucleation score result is “inactive”.

Consider LIGQFISYIKSVIGSDRKGC, for which the amyloid nucleation score result was “inactive”.

As for DLTDNVFYWSRNTIDEVRVR, the amyloid nucleation score entry is “inactive”.

Turning to MRNLGGLCIALPEVVEGTDF, the amyloid nucleation score entry is “inactive”.

With YCGTY, the amyloid nucleation score entry is “inactive”.

Turning to IRGSHGRWYSTHNCLTCDME, the amyloid nucleation score result is “inactive”.

Turning to HGIDKGLDVDETR, the amyloid nucleation score result is “inactive”.

The substance TAKGVKSDLECGCNVFRTEC displayed an amyloid nucleation score of 0.457 ± 0.15.

EAKMMRDLSVLVGMPYIMTN: the amyloid nucleation score result was “inactive”.

On to FDLGGLLPL, for which the amyloid nucleation score result is “inactive”.

As to DCSFMPTLYLGPTTFFFWHL, the amyloid nucleation score was 2.25 ± 0.064.

For RWKFYILVIYGVSASTFAQG, the amyloid nucleation score result is “inactive”.

Consider RITPLDCLSNGRQ, for which the amyloid nucleation score entry was “inactive”.

Regarding IQLKDKNGDL, the amyloid nucleation score result was “inactive”.

For FYGLYFYHSVH, the amyloid nucleation score entry was “inactive”.

Take PYIRNYSCSGSNQYLWDTSD: the amyloid nucleation score entry is “inactive”.

DDGFYMSVGIVSWFC showed an amyloid nucleation score of 0.843 ± 0.13.

As for YGEFDTLQW, the amyloid nucleation score entry is “inactive”.

In the case of SLSNVGLANFLFSRPSLRSY, the amyloid nucleation score entry is “inactive”.

Turning to VWSQIERLKHHPEFHMWC, the amyloid nucleation score result is “inactive”.

As to NNYSRVLSSIIEGIVIR, the amyloid nucleation score result was “inactive”.

In the case of SNYPWCSSSYYLGKISDLCS, the amyloid nucleation score entry is “inactive”.

With YSRSTSSEMEAERGSAWLES, the amyloid nucleation score entry is “inactive”.

YPSCRTSLSARHMVFQGITL: the amyloid nucleation score entry is “inactive”.

For the substance NAFLIGTDILRFMRVLFKQL, the amyloid nucleation score entry was “inactive”.

On to LERYWCTNRGFNRWMQAYKD, for which the amyloid nucleation score entry was “inactive”.

For the substance QLIVRSGKDSGVLWNLGQYR, the amyloid nucleation score entry was “inactive”.

Turning to RRWPTPVCFNEG, the amyloid nucleation score result was “inactive”.

As to NLCFCALCGKYIRVNVVAM, the amyloid nucleation score amounted to 1.52 ± 0.088.

On to LGSVVRRDEGIVGESY, for which the amyloid nucleation score came to 0.078 ± 0.6.

TFWYLFCDDDS: the amyloid nucleation score entry was “inactive”.

Turning to LKRSFNDFEFH, the amyloid nucleation score entry is “inactive”.

For the substance RLWTFCFA, the amyloid nucleation score result is “inactive”.

CGFAHFRNVALGWWYGVTLN: the amyloid nucleation score entry was “inactive”.

As to AIRGMNAERNR, the amyloid nucleation score result is “inactive”.

As for PFFCYWVTMKKVIFDTGVFA, the amyloid nucleation score result was “inactive”.

Regarding MFFAGKTPGHVHVWNSANTR, the amyloid nucleation score entry is “inactive”.

SIFLMSFRA registered an amyloid nucleation score of 1.41 ± 0.1.

In turn, NIGYSMLESPFIIIDICNSC yielded an amyloid nucleation score of 0.619 ± 0.13.

Turning to RGYGTSDRIAALMWLSRWFQ, the amyloid nucleation score entry was “inactive”.

Turning to RGANYVFGWKITVNAFEGEC, the amyloid nucleation score is 0.838 ± 0.14.

VWHMGWKLPDS displayed an amyloid nucleation score of -0.39 ± 0.56.

Regarding MVVLAVGRVKLAVYGCRKHG, the amyloid nucleation score result was “inactive”.

On to LFSGSHWCRDNMWSSGAIDA, for which the amyloid nucleation score entry is “inactive”.

Turning to HITGNGPHLRYCARQVLWSL, the amyloid nucleation score entry is “inactive”.

Consider SYFVLVWRETDFKHCLKGNF, for which the amyloid nucleation score entry is “inactive”.

As to KAHRYVWVPSMPSNMNSHRR, the amyloid nucleation score entry is “inactive”.

Turning to GLAVNNRPDCEVSSLNRLLM, the amyloid nucleation score result was “inactive”.
